B1: Azoarcus group I ribozyme (parent)
chain: GUGCCUUGCGCCGGGAAACCACGCAAGGGAUGGUGUCAAAUUCGGCGAAACCUAAGCGCCCGCCCGGGCGUAUGGCAACGCCGAGCCAAGCUUCGGCGCCUGCGCCGAUGAAGGUGUAGAGACUAGACGGCACCCACCUAAGGCAAACGCUAUGGUGAAGGCAUAGUCCAGGGAGUGGCGAAAGUCACACAAACCGG

Variants of: B1
Assay: reverse-splicing fitness (ratio to wild type); higher = more active; in vitro selection; Mg2+ level not given
In short: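 An in vitro group I ribozyme library with randomized positions was T7-transcribed and gel-purified. In triplicate, 10 pmol RNA in EPPS pH 7.5 was reacted with 50 pmoles of a 30-nt RNA substrate for 1 h at 37 °C across several added MgCl2 levels (1–48 mM), then stopped with EDTA. Products were reverse transcribed from a substrate-complementary primer, PCR-amplified and sequenced (HiSeq 4000). Fitness is a variant's read proportion after selection over that before, normalised to wild type.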

First: GUGCCUUGCGCCGGGAAACCACGCAAGGGAUGGUGUCAAAUUCGGCGAAACCUAAGCGCCCGCCCGGGCGUAUGGCAACGCUGAGCCAAGCUUCGGCGCCUGCGCCGAUGCAGGUGUAGAGACUAGACGGCACCCACCUAAGGCAAACGAUAUGGUGAAGGCAUAGUCAAGGGAGAGGCGAAAGUCACACAAACCGG
Second: GUGCCUUGCGCCGGGAAACCACGCAAGGGAUGGUGUCAAAUUCGGCGAAACCUAAGCGCCCGCCCGGGCGUAUGGCAACGCUGAGCCAAGCUUCGGCGCCUGCGCCGAUGCAGGUGUAGAGACUAGACGGCACCCACCUAAGGCAAACGAUAUGGUGAAGGCAUAGUCAAGGGAGCGGCGAAAGUCACACAAACCGG
The reverse-splicing fitness of the first is lower: 0.0162 for the first, 0.0175 for the second.

Going from GUGCCUUGCGCCGGGAAACCACGCAAGGGAUGGUGUCAAAUUCGGCGAAACCUAAGCGCCCGCCCGGGCGUAUGGCAACGCUGAGCCAAGCUUCGGCGCCUGCGCCGAUGCAGGUGUAGAGACUAGACGGCACCCACCUAAGGCUAACGCUAUGGUGAAGGCAUAGUCUAGGGAGUGGCGAAAGUCACACAAACCGG to GUGCCUUGCGCCGGGAAACCACGCAAGGGAUGGUGUCAAAUUCGGCGAAACCUAAGCGCCCGCCCGGGCGUAUGGCAACGCUGAGCCAAGCUUCGGCGCCUGCGCCGAUGCAGGUGUAGAGACUAGACGGCACCCACCUAAGGCUAACGCUAUGGUGAAGGCAUAGUCGAGGGAGUGGCGAAAGUCACACAAACCGG, the reverse-splicing fitness falls from 0.0114 to 0.0103.

Compared with GUGCCUUGCGCCGGGAAACCACGCAAGGGAUGGUGUCAAAUUCGGCGAAACCUAAGCGCCCGCCCGGGCGUAUGGCAACGCUGAGCCAAGCUUCGGCGCCUGCGCCGAUGCAGGUGUAGAGACUAGACGGCACCCACCUAAGGCAAACGAUAUGGUGAAGGCAUAGUCCAGGGAGUGGCGAAAGUCACACAAACCGG, GUGCCUUGCGCCGGGAAACCACGCAAGGGAUGGUGUCAAAUUCGGCGAAACCUAAGCGCCCGCCCGGGCGUAUGGCAACGCUGAGCCAAGCUUCGGCGCCUGCGCCGAUGCAGGUGUAGAGACUAGACGGCACCCACCUAAGGCUAACGCUAUGGUGAAGGCAUAGUCGAGGGAGCGGCGAAAGUCACACAAACCGG is lower in reverse-splicing fitness: 0.0255 for the first, 0.0162 for the second.

Compared with GUGCCUUGCGCCGGGAAACCACGCAAGGGAUGGUGUCAAAUUCGGCGAAACCUAAGCGCCCGCCCGGGCGUAUGGCAACGCUGAGCCAAGCUUCGGCGCCUGCGCCGAUGCAGGUGUAGAGACUAGACGGCACCCACCUAAGGCUAACGCUAUGGUGAAGGCAUAGUCGAGGGAGAGGCGAAAGUCACACAAACCGG, GUGCCUUGCGCCGGGAAACCACGCAAGGGAUGGUGUCAAAUUCGGCGAAACCUAAGCGCCCGCCCGGGCGUAUGGCAACGCUGAGCCAAGCUUCGGCGCCUGCGCCGAUGCAGGUGUAGAGACUAGACGGCACCCACCUAAGGCUAACGCUAUGGUGAAGGCAUAGUCGAGGGAGGGGCGAAAGUCACACAAACCGG is lower in reverse-splicing fitness: 0.0145 for the first, 0.00667 for the second.

Compared with GUGCCUUGCGCCGGGAAACCACGCAAGGGAUGGUGUCAAAUUCGGCGAAACCUAAGCGCCCGCCCGGGCGUAUGGCAACGCUGAGCCAAGCUUCGGCGCCUGCGCCGAUGCAGGUGUAGAGACUAGACGGCACCCACCUAAGGCUAACGCUAUGGUGAAGGCAUAGUCUAGGGAGAGGCGAAAGUCACACAAACCGG, GUGCCUUGCGCCGGGAAACCACGCAAGGGAUGGUGUCAAAUUCGGCGAAACCUAAGCGCCCGCCCGGGCGUAUGGCAACGCUGAGCCAAGCUUCGGCGCCUGCGCCGAUGCAGGUGUAGAGACUAGACGGCACCCACCUAAGGCUAACGCUAUGGUGAAGGCAUAGUCUAGGGAGCGGCGAAAGUCACACAAACCGG is lower in reverse-splicing fitness: 0.0163 for the first, 0.0143 for the second.

Compared with GUGCCUUGCGCCGGGAAACCACGCAAGGGAUGGUGUCAAAUUCGGCGAAACCUAAGCGCCCGCCCGGGCGUAUGGCAACGCUGAGCCAAGCUUCGGCGCCUGCGCCGAUGCAGGUGUAGAGACUAGACGGCACCCACCUAAGGCUAACGCUAUGGUGAAGGCAUAGUCUAGGGAGGGGCGAAAGUCACACAAACCGG, GUGCCUUGCGCCGGGAAACCACGCAAGGGAUGGUGUCAAAUUCGGCGAAACCUAAGCGCCCGCCCGGGCGUAUGGCAACGCUGAGCCAAGCUUCGGCGCCUGCGCCGAUGCAGGUGUAGAGACUAGACGGCACCCACCUAAGGCAAACGAUAUGGUGAAGGCAUAGUCAAGGGAGUGGCGAAAGUCACACAAACCGG is higher in reverse-splicing fitness: 0.00634 for the first, 0.00994 for the second.

First: GUGCCUUGCGCCGGGAAACCACGCAAGGGAUGGUGUCAAAUUCGGCGAAACCUAAGCGCCCGCCCGGGCGUAUGGCAACGCUGAGCCAAGCUUCGGCGCCUGCGCCGAUGCAGGUGUAGAGACUAGACGGCACCCACCUAAGGCUAACGCUAUGGUGAAGGCAUAGUCCAGGGAGAGGCGAAAGUCACACAAACCGG
Second: GUGCCUUGCGCCGGGAAACCACGCAAGGGAUGGUGUCAAAUUCGGCGAAACCUAAGCGCCCGCCCGGGCGUAUGGCAACGCUGAGCCAAGCUUCGGCGCCUGCGCCGAUGCAGGUGUAGAGACUAGACGGCACCCACCUAAGGCUAACGCUAUGGUGAAGGCAUAGUCCAGGGAGGGGCGAAAGUCACACAAACCGG
The reverse-splicing fitness of the first is higher: 0.0808 for the first, 0.0238 for the second.

GUGCCUUGCGCCGGGAAACCACGCAAGGGAUGGUGUCAAAUUCGGCGAAACCUAAGCGCCCGCCCGGGCGUAUGGCAACGCUGAGCCAAGCUUCGGCGCCUGCGCCGAUGCAGGUGUAGAGACUAGACGGCACCCACCUAAGGCUAACGCUAUGGUGAAGGCAUAGUCCAGGGAGCGGCGAAAGUCACACAAACCGG showed a reverse-splicing fitness of 0.103.

Source: the RNAGym collection of RNA variant scans (doi:10.1093/molbev/msab373)
